Laboratory results: patent publication US8431396B2, “Anti-angiogenic peptides” (The Cleveland Clinic Foundation, priority 2003, dated 2013)

B2: recombinant human TIMP3 (tissue inhibitor of metalloproteinases-3) (other)
chain: CTCSPSHPQDAFCNSDIVIRAKVVGKKLVKEGPFGTLVYTIKQMKMYRGFTKMPHVQYIHTEASESLCGLKLEVNKYQYLLTGRVYDGKMYTGLCNFVERWDQLTLSQRKGLNYRYHLGCNCKIKSCYYLPCFVTSKNECLWTDMLSNFGYPGYQSKHYACIRQKGGYCSWYRGWAPPDKSIINATDP
notes: Radio-iodinated in some assays; also called rTIMP3; recombinant TIMP3

Columns and labels:
KDR = biological target: T1, KDR (Homo sapiens, UniProt P35968); experiment: [125I]VEGF binding to the surface of PAE-KDR cells; details: same conditions as TIMP3
T1 construct: To determine whether these receptor isoforms represent full-length VEGFR-2; expressed in transfected cells; host or cells: porcine aortic endothelial (PAE) cells
T1 sequence (P35968 20-1356): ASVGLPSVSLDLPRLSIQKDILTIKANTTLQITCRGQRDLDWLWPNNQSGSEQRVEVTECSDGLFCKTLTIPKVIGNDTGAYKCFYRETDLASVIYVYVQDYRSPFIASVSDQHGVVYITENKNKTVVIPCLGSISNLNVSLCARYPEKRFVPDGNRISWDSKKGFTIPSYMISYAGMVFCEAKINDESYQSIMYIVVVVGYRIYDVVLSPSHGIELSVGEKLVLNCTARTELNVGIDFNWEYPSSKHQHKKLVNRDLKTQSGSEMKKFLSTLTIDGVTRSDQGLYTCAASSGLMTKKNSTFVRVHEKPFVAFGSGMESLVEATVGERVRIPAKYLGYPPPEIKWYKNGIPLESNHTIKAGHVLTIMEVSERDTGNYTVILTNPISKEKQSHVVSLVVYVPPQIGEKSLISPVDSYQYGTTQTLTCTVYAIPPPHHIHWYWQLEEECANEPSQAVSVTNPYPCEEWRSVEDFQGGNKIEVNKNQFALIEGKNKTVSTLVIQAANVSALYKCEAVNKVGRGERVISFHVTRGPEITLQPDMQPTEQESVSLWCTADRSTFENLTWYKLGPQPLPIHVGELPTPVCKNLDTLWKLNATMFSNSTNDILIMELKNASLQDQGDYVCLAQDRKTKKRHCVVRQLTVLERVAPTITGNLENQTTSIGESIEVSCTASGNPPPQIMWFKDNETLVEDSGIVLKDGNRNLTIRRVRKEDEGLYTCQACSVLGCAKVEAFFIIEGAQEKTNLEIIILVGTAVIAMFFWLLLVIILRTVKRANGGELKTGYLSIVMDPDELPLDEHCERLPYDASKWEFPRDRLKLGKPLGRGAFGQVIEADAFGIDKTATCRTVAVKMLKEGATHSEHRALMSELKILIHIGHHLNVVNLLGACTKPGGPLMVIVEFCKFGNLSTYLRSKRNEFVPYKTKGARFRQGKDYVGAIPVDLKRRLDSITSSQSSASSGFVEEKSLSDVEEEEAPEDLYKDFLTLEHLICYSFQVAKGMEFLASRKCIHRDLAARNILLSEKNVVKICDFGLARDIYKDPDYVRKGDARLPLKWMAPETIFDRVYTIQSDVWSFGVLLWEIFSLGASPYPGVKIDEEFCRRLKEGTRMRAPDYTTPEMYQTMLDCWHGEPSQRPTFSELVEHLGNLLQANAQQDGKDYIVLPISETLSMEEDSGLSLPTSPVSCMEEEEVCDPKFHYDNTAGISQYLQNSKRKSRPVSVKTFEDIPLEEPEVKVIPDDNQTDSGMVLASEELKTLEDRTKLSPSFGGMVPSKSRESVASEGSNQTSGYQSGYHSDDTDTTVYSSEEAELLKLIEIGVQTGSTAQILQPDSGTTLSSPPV
Method: Radioligand binding is expressed as percent binding and is the mean±s.e.m. of triplicate samples. […] All values are expressed as mean±s.e.m. of triplicate samples. […] Binding is expressed as mean±s.e.m.
Data were analyzed by Scatchard plot analyses.

KDR (VEGFR2) = KDR (VEGFR2) (Homo sapiens, UniProt P35968); experiment: ELISA of sKDR binding to VEGF-coated plates
Sequence of KDR (VEGFR2) (P35968 20-764 limits assumed): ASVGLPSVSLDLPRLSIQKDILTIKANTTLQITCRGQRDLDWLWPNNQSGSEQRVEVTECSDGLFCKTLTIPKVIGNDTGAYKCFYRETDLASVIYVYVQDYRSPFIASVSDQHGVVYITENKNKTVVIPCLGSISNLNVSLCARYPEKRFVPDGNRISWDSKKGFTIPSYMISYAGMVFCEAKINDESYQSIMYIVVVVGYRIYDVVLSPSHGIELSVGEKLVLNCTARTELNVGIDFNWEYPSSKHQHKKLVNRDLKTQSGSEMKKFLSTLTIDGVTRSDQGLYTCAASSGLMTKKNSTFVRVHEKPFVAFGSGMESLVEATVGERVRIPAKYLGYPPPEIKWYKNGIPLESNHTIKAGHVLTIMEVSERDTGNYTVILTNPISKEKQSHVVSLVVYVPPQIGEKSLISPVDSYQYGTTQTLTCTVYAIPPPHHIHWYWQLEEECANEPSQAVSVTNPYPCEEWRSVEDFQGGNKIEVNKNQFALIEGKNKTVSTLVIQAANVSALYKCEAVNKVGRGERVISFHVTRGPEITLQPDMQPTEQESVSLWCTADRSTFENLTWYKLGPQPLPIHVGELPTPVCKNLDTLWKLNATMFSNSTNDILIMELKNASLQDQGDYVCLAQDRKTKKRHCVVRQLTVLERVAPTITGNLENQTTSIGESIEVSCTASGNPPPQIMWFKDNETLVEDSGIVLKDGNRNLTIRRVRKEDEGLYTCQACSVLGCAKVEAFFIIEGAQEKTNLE
Method: In the assay, 96 well immunoplates were coated with VEG (80 ng/ml) as per standard procedures.

[1] = tested on: Choroidal Neovascularization (CNV); experiment: Laser-induced choroidal neovascularization (CNV) mouse model of AMD; format: in vivo, C57BL6 mice; details: single intravitreal injection on day 3; examined 14 days after laser
Method: We next tested the ability of intravitreal TIMP-3 tail and loop 6 peptide to inhibit Choroidal Neovascularization (CNV), a mouse model of age-related macular degeneration (AMD). C57BL6 mice (n=5) in each each group were lasered to induce CNV. On day 3 intravitreal injections [single dose] of control N terminal peptide (116) or TIMP-3 peptides (Tail peptide (SEQ ID NO: 13), Loop 6 (SEQ ID NO: 12), and Loop 5 (SEQ ID NO: 11) were administered. Animals were sacrificed at 14 days following laser and whole mount retinas were examined for evidence of CNV following injection of fluorescein dextran marker.

VEGF = biological target: T2, VEGF (Homo sapiens, UniProt P15692); experiment: Solid-phase direct binding of [125I]VEGF to wells coated with TIMPs
T2 construct: purchased Genentech (gift, not bought)
T2 sequence (P15692 27-191 isoform P15692-4): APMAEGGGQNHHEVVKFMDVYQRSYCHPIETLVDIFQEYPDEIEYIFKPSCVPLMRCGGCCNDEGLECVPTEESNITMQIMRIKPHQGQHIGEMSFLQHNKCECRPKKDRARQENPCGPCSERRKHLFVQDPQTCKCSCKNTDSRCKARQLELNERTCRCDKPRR

PAE-KDR cells = experiment: Endothelial cell migration toward VEGF (modified Boyden chamber); format: cell-based, porcine; details: added exogenously; VEGF165 10 ng/ml
Method: (B) Comparison of the effects of rTIMP3, rTIMP1 and BB3103 on VEGF165-induced migration of PAE-KDR cells. […] In all migration experiments, migrating cell number is expressed as mean±s.e.m. of quadruplicate samples. All experiments were done in triplicate. Open symbols, KDR-vector; closed symbols, KDR-TIMP3.*, P<0.01; **, P<0.05.
(§1) A modified Boyden chamber assay for migration and proliferation assays were carried out as described.

[2] = tested on: chick embryo chorioallantoic membrane (CAM); experiment: Chick embryo chorioallantoic membrane (CAM) assay of VEGF-mediated angiogenesis; format: in vivo, chicken
Source text: The CAM assay was done as described with slight modifications. Fertilized 3-day-old white Leghorn eggs (Sunnyside, Beaver Dam, Wis.) were cracked and embryos with the yolk intact were placed in glass-bottomed Petri dishes. […] Angiogenesis was reported as the angiogenic index (mean number of tertiary branchpoints from experimental conditions minus the mean number of branchpoints from buffer controls with no angiogenic stimulator).

PAEKDR cells [3] = experiment: VEGF-stimulated proliferation ([3H]thymidine) of transfected PAEKDR cells; format: cell-based, porcine; details: mock cells
Method: Cells were seeded at a density of 5000 cells/well in 24 well culture plates and cultured for 24 h in growth medium. […] High molecular weight DNA was precipitated using 5% trichloroacetic acid at 4° C. for 30 min After two washes with ice-cold H2O, 3H radioactivity was solubilized in 1 N NaOH for 20 min at room temperature, acidified by addition of 2 N HCl, and measured using a liquid scintillation counter. Each sample was assayed in triplicate and the assays were repeated at least twice.

endothelial cells = experiment: Competitive displacement of [125I]TIMP3 from the surface of endothelial cells; format: binding; details: unlabeled VEGF 2 μg/ml, TIMP3 10 μg/ml
Method: Immunoprecipitation of cell lysates with antibodies specific for TIMP3 was followed by immunoblotting with antibodies specific for KDR (top). As a control for KDR receptor, cell lysates were immunoprecipitated with anti-bodies specific for KDR and probed with antibodies specific for KDR Immunoprecipitation with antibodies specific for KDR and immunoblotting with antibodies specific for TIMP3 (bottom) were carried out on PAE-KDR cells exposed to recombinant TIMP3 or PAE-KDR-vector and PAE-KDR cells overexpressing TIMP3, to confirm the interaction. […] Competition with unlabeled TIMP3 was carried out to ensure specificity. […] (E) In vivo interaction of KDR and TIMP3 in human placenta. Immunoprecipitation using antibodies specific TIMP3 (top) and KDR (bottom) was followed by immunoblotting with antibodies specific for KDR (top) and TIMP3 (bottom).

VEGFR1 (FLT-1) = VEGFR1 (FLT-1) (Homo sapiens, UniProt P17948); details: read-out: Kd of VEGF binding to VEGFR1; cited from earlier work
Sequence of VEGFR1 (FLT-1) (P17948 27-1338, species assumed): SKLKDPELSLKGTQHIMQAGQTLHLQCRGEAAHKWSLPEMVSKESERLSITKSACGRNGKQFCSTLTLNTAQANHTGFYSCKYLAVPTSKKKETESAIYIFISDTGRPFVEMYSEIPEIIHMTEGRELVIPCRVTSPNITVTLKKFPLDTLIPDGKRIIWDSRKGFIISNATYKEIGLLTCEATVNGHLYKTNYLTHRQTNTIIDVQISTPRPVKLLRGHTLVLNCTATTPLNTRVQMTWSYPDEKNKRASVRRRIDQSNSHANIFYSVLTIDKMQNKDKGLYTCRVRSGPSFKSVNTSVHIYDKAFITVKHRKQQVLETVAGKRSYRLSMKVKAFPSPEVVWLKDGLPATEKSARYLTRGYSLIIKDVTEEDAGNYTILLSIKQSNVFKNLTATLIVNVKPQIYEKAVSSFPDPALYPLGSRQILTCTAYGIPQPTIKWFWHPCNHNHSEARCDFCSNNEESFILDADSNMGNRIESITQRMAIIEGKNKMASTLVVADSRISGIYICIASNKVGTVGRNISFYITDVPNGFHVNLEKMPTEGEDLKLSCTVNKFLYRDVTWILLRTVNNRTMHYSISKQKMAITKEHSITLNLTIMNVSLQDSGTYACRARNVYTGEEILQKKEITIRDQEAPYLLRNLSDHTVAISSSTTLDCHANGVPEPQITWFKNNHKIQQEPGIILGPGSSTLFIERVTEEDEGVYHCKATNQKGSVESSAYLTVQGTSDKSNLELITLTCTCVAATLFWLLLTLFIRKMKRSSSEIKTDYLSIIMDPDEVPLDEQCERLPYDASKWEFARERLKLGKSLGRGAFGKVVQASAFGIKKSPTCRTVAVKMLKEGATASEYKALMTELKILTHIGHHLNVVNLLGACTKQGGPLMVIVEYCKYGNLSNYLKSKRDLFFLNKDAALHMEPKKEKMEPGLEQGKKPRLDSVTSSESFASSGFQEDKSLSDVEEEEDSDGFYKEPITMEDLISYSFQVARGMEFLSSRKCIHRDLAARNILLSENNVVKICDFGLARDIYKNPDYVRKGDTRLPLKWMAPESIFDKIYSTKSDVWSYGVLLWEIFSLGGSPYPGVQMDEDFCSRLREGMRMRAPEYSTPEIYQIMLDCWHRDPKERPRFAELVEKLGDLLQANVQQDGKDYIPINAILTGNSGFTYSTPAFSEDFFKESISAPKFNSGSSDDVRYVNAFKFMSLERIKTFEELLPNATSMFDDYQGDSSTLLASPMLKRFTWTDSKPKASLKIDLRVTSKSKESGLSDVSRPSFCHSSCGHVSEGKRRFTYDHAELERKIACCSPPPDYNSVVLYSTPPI

PAEKDR cells [4] = experiment: VEGF-stimulated migration (modified Boyden chamber) of transfected PAEKDR cells; format: cell-based, porcine; details: mock cells
Method: A modified Boyden chamber assay was carried out as described previously 34. Briefly, 8.0 μm pore PVPF polycarbonate membranes were pre-coated with 100 μg/ml collagen type I in 0.2 N acetic acid (Cohesion technologies, INC. Pala Alto, Calif.). […] Chamber was then incubated for 4 hrs at 37° C. in a 5% CO2 humidified incubator. Cells remaining on the top of the filter were removed. Cells on the bottom surface of the filter were fixed, stained and mounted. The number of migrating cells per well was counted microscopically.

[5] = biological target: T3, KDR (VEGFR2) on the surface of PAE-KDR cells (human, UniProt P35968 20-1356); experiment: inhibition of [125I]VEGF binding to PAE-KDR cells by pretreatment with TIMP3
T3 construct: whole, on cells; also called KDR-vector
T3 sequence (P35968 20-1356): as the sequence (P35968 20-1356) above

[6] = biological target: T4, soluble KDR-IgG (receptor IgG chimeric protein) (UniProt P35968 20-764, limits assumed); experiment: solid-phase assay: displacement of [125I]VEGF165 from soluble KDR-IgG by TIMP3
T4 construct: Bought from R&D Systems; also called KDR-Fc; sKDR; not shown: IgG Fc portion
T4 sequence (P35968 20-764 limits assumed, change not shown): as the sequence (P35968 20-764 limits assumed) above
Method: Soluble KDR-Fc or FLT1-Fc (50 ng) was added to each well. […] After washing, the bound protein was solubilized with 1% SDS and 1 M NaOH and radioactivity measured in a γ-counter.

MS1 endothelial cells = experiment: 125I-VEGF165 binding to adenovirus-infected MS1 endothelial cells; set-up: species or system mouse; details: cells infected with adenovirus expressing TIMP3Cys1-Ser
Method: Radioligand binding is expressed as percent binding and is the mean±s.e.m. of triplicate samples. […] All values are expressed as mean±s.e.m. of triplicate samples. […] Binding is expressed as mean±s.e.m. Data is shown as percent binding of triplicate samples, with binding to PAE-KDR cells in the absence of any inhibitor as 100%. *, P<0.01. […] P<0.01.
(§2) MS1 mouse endothelial cells\(American Type Culture Collection, Manassas, Va.) were cultured until 80% confluent and infected with adenovirus as described. Cells were infected at 50 or 200 plaque-forming units per cell for 18 h. Medium was then replaced with fresh complete medium and left for 48 h until analysis.

MMPs = experiment: Reverse zymography of ECM extracts (MMP-inhibitory activity); format: biochemical; details: MS1 cells infected with Rad-TIMP3Cys1-Ser vs wild-type
Method: Conditioned medium, cell lysates and ECM fractions from transfected cells were prepared. Equal amounts of protein were loaded onto a 12% gel with 1 mg/ml gelatin plus RPE cell-conditioned medium, as a source of MMPs, for reverse zymography and processed as described.

[7] = tested on: MS1 mouse endothelial cells; experiment: MS1 endothelial cells infected with adenovirus expressing WT-TIMP3 or TIMP3Cys1-Ser: apoptosis and [3H]thymidine incorporation; format: cell-based
Method: as §2, §1

recombinant human TIMP2 = biological target: T5, recombinant human TIMP2 (human, UniProt P16035 27-220); experiment: solid-phase binding of [125I]VEGF to wells coated with TIMP2
T5 construct: also called rTIMP2

[8] = biological target: B2; experiment: solid-phase binding of [125I]VEGF to wells coated with TIMP3
recombinant human TIMP1 = biological target: T6, recombinant human TIMP1 (human, UniProt P01033 24-207); experiment: solid-phase binding of [125I]VEGF to wells coated with TIMP1
T6 construct: also called rTIMP1
T6 sequence (P01033 24-207 limits assumed): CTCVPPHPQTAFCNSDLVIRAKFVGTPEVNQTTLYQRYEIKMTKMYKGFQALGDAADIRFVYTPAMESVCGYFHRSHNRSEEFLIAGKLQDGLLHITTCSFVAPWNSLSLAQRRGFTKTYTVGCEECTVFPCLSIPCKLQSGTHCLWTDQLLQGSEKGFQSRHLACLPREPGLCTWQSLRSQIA

In the case of `O=C(NO)[C@@H](Cc1ccccc1)NS(=O)(=O)c1ccc(-c2ccccc2)cc1` [MMP-2 and MMP-9 inhibitor, (2R)-[(4-biphenylylsulfonyl)amino]-N-hydroxy-3-phenylpropionamide], the “inhibition of binding of VEGF to PAE-KDR cells” value (KDR) is reported as “could not inhibit binding of VEGF”.

For “GYCSWYRGWAPPDKSIINATDP (listed as Homo sapiens) [tail peptide, synthetic peptide from the tail portion of the C-terminal region of TIMP-3]”, the “inhibition of VEGF binding to KDR at lower doses, comparison of peptides” value (KDR (VEGFR2); 0.03 μM and 0.1 μM) was “inhibited VEGF binding better than the Loop 6 peptide and the Loop 5 peptide”, the “inhibition of VEGF binding to KDR” value (KDR (VEGFR2); 3 μM) was “inhibit VEGF binding” and the “inhibition of VEGF binding to KDR compared with recombinant TIMP-3” value (KDR (VEGFR2); 3 μM) was “same levels as recombinant TIMP-3”. The “inhibition of CNV (fluorescein dextran, whole mount retina)” value [1] was “inhibit CNV”.

In the case of “KNECLWTDMLSNFGYPGYQSKHYACIRQKG (listed as Homo sapiens) [loop 6 peptide, synthetic peptide from loop-6 of the C-terminal region of TIMP-3]”, the “inhibition of VEGF binding to KDR” value (KDR (VEGFR2); 3 μM) is reported as “inhibit VEGF binding” and the “inhibition of CNV (fluorescein dextran, whole mount retina)” value [1] is reported as “inhibit CNV”.

With “TIMP1: recombinant human TIMP1 expressed in NSO myeloma cells [reference compound]” the “direct binding of [125I]VEGF to coated TIMP” value (VEGF) was “did not detect direct binding”, the “inhibition of endothelial cell migration toward VEGF” value (PAE-KDR cells) was “not observed” and the “angiogenic index (tertiary branchpoints of capillaries)” value ([2]; VEGF plus inhibitor) was 172±8. For the same molecule, the “inhibition of binding of VEGF to PAE-KDR cells” value (KDR) was “could not inhibit the binding of VEGF to KDR”.

In the case of VEGF [reference compound], the “VEGF concentration of maximum proliferative activity” value (PAEKDR cells [3]) is reported as 15 ng/mL, the “inhibition of binding of labeled TIMP3 to the surface of endothelial cells” value (endothelial cells) is reported as “could inhibit the binding of labeled TIMP3” and the “angiogenic index (tertiary branchpoints of capillaries)” value ([2]; VEGF alone) is reported as 190±5. The Kd (VEGFR1 (FLT-1)) was 0.015 to 0.1 nM and the “VEGF concentration of maximum migratory effect” value (PAEKDR cells [4]) was 50 ng/mL.

B1: C-terminal TIMP3: chimera of residues 1-126 of TIMP-2 and residues 122-188 of TIMP3 representing the isolated C-terminal domain of TIMP3 (protein, listed as Homo sapiens)
chain: CSCSPVHPQQAFCNADVVIRAKAVSEKEVDSGNDIYGNPIKRIQYEIKQIKMFKGPEKDIEFIYTAPSSAVCGVSLDVGGKKEYLIAGKAEGDGKMHITLCDFIVPWDTLSTTQKKSLNHRYQMGCCKIKSCYYLPCFVTSKNECLWTDMLSNFGYPGYQSKHYACIRQKGGYCSWYRGWAPPDKSIINATDP
In the case of B1, the “inhibition of VEGF binding to KDR by TIMP3 domains” value (KDR (VEGFR2); preliminary studies) is reported as “inhibits binding of VEGF to KDR”.

With B2 the IC50 [5] was 3.3 to 4.5 mg/L and the IC50 [6] was 2.9 mg/L.

B3: TIMP3Cys1-Ser: recombinant TIMP3 protein with reduced metalloproteinase-inhibitory activity, expressed from adenovirus Rad66 (protein)
chain: STCSPSHPQDAFCNSDIVIRAKVVGKKLVKEGPFGTLVYTIKQMKMYRGFTKMPHVQYIHTEASESLCGLKLEVNKYQYLLTGRVYDGKMYTGLCNFVERWDQLTLSQRKGLNYRYHLGCNCKIKSCYYLPCFVTSKNECLWTDMLSNFGYPGYQSKHYACIRQKGGYCSWYRGWAPPDKSIINATDP
For B3, the “binding of VEGF to cell surfaces” value (MS1 endothelial cells) was “reduced binding of VEGF to its cell surfaces”, the “metalloproteinase-inhibitory activity (reverse zymography of ECM extracts)” value (MMPs) was “reduced metalloproteinase-inhibitory activity” and the “apoptosis after adenovirus infection” value ([7]; MS1 cells infected with wild-type or mutant virus) was “No apoptosis was observed”. The “proliferative response to VEGF ([3H]thymidine incorporation)” value ([7]; cells infected with Rad-TIMP3Cys1-Ser) was “still inhibited in their proliferative response to VEGF”.

B4: recombinant human VEGF165 (ligand, UniProt P15692-4 27-191, looked up)
chain: APMAEGGGQNHHEVVKFMDVYQRSYCHPIETLVDIFQEYPDEIEYIFKPSCVPLMRCGGCCNDEGLECVPTEESNITMQIMRIKPHQGQHIGEMSFLQHNKCECRPKKDRARQENPCGPCSERRKHLFVQDPQTCKCSCKNTDSRCKARQLELNERTCRCDKPRR
B4: no binding (recombinant human TIMP2); no binding [8]; no binding (recombinant human TIMP1).
